Laboratory results: publication PMC3183026 (Molecular Biology of the Cell, 2011)

Target: DCC (endogenous, embryonic rat cortical neurons) (rat (endogenous in E18 cortical neurons), UniProt Q63155 26-1445)
Assay: co-IP

Chain of DCC (endogenous, embryonic rat cortical neurons) (Q63155 26-1445): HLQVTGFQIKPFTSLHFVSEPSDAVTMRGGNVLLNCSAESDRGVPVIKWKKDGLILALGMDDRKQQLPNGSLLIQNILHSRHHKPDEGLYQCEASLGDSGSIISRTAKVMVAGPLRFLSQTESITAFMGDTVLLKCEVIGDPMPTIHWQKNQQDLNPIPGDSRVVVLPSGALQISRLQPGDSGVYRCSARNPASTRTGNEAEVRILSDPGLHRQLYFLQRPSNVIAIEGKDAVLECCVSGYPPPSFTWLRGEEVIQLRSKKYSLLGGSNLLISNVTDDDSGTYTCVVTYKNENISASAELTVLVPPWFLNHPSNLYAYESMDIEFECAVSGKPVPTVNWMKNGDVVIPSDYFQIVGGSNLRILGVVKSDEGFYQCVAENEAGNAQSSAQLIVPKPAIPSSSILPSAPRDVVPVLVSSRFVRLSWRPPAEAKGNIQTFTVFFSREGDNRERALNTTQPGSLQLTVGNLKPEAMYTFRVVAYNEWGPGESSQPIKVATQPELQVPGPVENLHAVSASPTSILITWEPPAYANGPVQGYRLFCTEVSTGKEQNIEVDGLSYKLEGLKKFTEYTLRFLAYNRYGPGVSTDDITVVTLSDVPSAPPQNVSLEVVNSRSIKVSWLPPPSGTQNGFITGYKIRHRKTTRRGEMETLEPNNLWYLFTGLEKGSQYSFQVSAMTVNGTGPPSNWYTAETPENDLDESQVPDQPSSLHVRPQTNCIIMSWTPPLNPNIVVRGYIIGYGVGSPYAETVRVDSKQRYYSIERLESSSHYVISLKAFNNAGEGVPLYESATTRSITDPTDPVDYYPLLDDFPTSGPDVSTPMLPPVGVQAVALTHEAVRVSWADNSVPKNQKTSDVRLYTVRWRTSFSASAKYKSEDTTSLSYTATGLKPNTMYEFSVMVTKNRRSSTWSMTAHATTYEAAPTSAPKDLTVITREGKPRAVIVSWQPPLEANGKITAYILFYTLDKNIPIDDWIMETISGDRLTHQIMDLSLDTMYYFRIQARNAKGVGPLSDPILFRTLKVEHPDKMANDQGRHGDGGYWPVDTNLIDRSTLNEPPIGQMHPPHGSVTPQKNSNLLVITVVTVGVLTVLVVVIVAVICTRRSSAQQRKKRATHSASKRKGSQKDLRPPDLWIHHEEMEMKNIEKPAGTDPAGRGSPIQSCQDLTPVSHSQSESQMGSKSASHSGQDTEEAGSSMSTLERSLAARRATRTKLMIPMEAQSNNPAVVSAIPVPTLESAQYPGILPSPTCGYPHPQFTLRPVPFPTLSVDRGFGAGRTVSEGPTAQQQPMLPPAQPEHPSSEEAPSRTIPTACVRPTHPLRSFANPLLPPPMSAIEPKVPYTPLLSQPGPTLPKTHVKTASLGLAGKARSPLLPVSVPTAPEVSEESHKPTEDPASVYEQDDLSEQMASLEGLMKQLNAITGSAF

B1: ezrin (endogenous, embryonic rat cortical neurons) (natural protein)
chain: MPKPINVRVTTMDAELEFAIQPNTTGKQLFDQVVKTIGLREVWYFGLQYVDNKGFPTWLKLDKKVSAQEVRKENPVQFKFRAKFYPEDVADELIQDITQKLFFLQVKEGILSDEIYCPPETAVLLGSYAVQAKFGDYNKEMHKSGYLSSERLIPQRVMDQHKLSRDQWEDRIQVWHAEHRGMLKDSAMLEYLKIAQDLEMYGINYFEIKNKKGTDLWLGVDALGLNIYEKDDKLTPKIGFPWSEIRNISFNDKKFVIKPIDKKAPDFVFYAPRLRINKRILQLCMGNHELYMRRRKPDTIEVQQMKAQAREEKHQKQLERQQLETEKKRRETVEREKEQMLREKEELMLRLQDFEQKTKRAEKELSEQIEKALQLEEERRRAQEEAERLEADRMAALRAKEELERQAQDQIKSQEQLAAELAEYTAKIALLEEARRRKEDEVEEWQHRAKEAQDDLVKTKEELHLVMTAPPPPPPPVYEPVNYHVQEGLQDEGAEPMGYSAELSSEGILDDRNEEKRITEAEKNERVQRQLLTLSNELSQARDENKRTHNDIIHNENMRQGRDKYKTLRQIRQGNTKQRIDEFEAM
**Q.** B1 was tested. Which “fold increase relative to unstimulated neurons” value did it give?
**A.** The value was 6 fold.
